One block for each molecule: values may come before it.
Tests used:
[1] = molecular target: His-tagged CRABP1 H94A (Mus musculus); assay: pull-down; purified His-CRABP1 (WT or mutant, 5 uM) held on Ni-NTA resin as bait; 250 ug pre-cleared lysate of HEK293T cells expressing GFP-CaMKII (DMSO or ionomycin 10 uM, 10 min) as prey; 50 mM Tris pH 8.0, 150 mM NaCl, 0.2% NP-40, 20% glycerol, 200 mM imidazole, overnight at 4°C; Western blot with anti-GFP and anti-His; densitometry gives the CCI (n = 5)
[2] = molecular target: His-tagged CRABP1 T96A (Mus musculus); assay: as above
[3] = molecular target: His-tagged CRABP1 R29A (Mus musculus); assay: as above
[4] = molecular target: T1, 15N-labeled wild-type cellular retinoic acid-binding protein 1 (CRABP1) (Mus musculus, UniProt P62965 2-137, 15N-labeled); assay: NMR titration; 15N-1H HSQC of 15N-labeled CRABP1 (19 uM) without and with CaMK-R peptide (200 uM); 30 mM d11-Tris-d3-acetate pH 6.2, 75 mM Na2SO4, 10 uM ZnCl2, 1 mM TCEP, 30°C; settings: both partners purified
T1 construct: also called 15N-labeled CRABP1; 15N WT CRABP1; source: expressed and purified as described in Park et al. (2019); SEC
T1 sequence (P62965 2-137): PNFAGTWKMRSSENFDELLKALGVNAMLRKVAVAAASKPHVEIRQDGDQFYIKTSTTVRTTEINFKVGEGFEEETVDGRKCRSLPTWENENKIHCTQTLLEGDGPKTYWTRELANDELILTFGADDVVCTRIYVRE

- CRABP1–CaMKII Complex Index (CCI; ratio of inactive to active CaMKII pulled down) [1]: 1
- CRABP1–CaMKII Complex Index (CCI; ratio of inactive to active CaMKII pulled down) [2]: 1
Molecule: GFP-CaMKII beta, inactive (from vehicle-treated HEK293T cells) (from UniProt P08413 1-542) (enzyme)

- CRABP1–CaMKII Complex Index (CCI; ratio of inactive to active CaMKII pulled down) [3]: 1
Molecule: GFP-CaMKII beta, inactive (from vehicle-treated HEK293T cells) (from UniProt P08413 1-542) (cell lysate)

- binding result [4]: binds
B1: CaMK-R peptide (29-residue peptide, residues 281–309 of the regulatory segment of CaMKII alpha) (peptide, UniProt P11798 281-309, looked up)
peptide: MHRQETVDCLKKFNARRKLKGAILTTMLA
notes: also called CAMKII-R; CaMKII peptide; source: synthetic peptide (University of Minnesota Peptide Synthesis Services)
